Patent publication US12065466B2, “Methods and compositions for protein sequencing” (Quantum-Si Incorporated, priority 2020, dated 2024)
Where two headings read alike, the source gives them in different places.

What was measured:
[1] = tested on: amino acid at a terminal position of a polypeptide; details: Table 2; amino acid identity at a terminal position (phosphotyrosine also internal); inferred from literature and/or demonstrated by the inventors; cited from earlier work
[2] = tested on: immobilized peptides containing N-terminal R, K or H; experiment: Biolayer interferometry of UBR-box domain homologs; format: binding; details: for binding affinity to N-terminal R with different penultimate amino acids: 14 polypeptides containing N-terminal R; for binding range for RX dipeptides / dissociation rates with R dipeptides: 14 peptides RXGGGDDDFFK (SEQ ID NO: 241); for binding to RA/KA/HA peptides (single-point screening): 30° C., XAKLDEESILKQK
Description: The amino acid binding properties of UBR-box domain homologs were evaluated by biolayer interferometry. Peptides containing an N-terminal arginine (R), followed by different amino acids in the penultimate position, were immobilized on a biolayer interferometry sensor surface, allowed to bind to UBR-box protein, and incubated in buffer to allow the UBR-box molecules to dissociate. […] FIG. 32C is a heatmap showing results measured for 24 UBR-box homologs against 14 polypeptides containing N-terminal R followed by different amino acids in the penultimate position.
UBR proteins bind to the basic N-terminal residues R, K, and H as part of the conserved N-end rule pathway. To identify high-affinity UBR proteins with properties favorable for use in sequencing, a diverse panel of uncharacterized UBR-box domain homologs from 44 species (PS501-PS544) was designed. UBR-box domain homologs were expressed, purified, and evaluated for binding to N-terminal amino acids by biolayer interferometry. Measurements were carried out at 30° C. for each protein for R, K and H binding. The amino-acid binding profile of each new homolog was first evaluated by biolayer interferometry using a single-point screening assay. All peptides in this screen contained a penultimate alanine (A) and consisted of the sequence XAKLDEESILKQK (SEQ ID NO: 238), where X is R, K, or H.
To evaluate the effect of penultimate amino acids on arginine binding, UBR box-domain homologs were evaluated for binding to 14 different peptides with N-terminal RX (peptide sequence: RXGGGDDDFFK (SEQ ID NO: 241)). The selected RX dipeptides are the 14 most frequently found in the human proteome.

[3] = tested on: amino acid at a terminal position of a polypeptide; experiment: Amino acid binding preference of recognition proteins (Tables 1 and 2); details: Table 1, ClpS proteins; amino acid identity at a terminal position of a polypeptide; inferred from literature and/or demonstrated by the inventors
Text: It should be appreciated that these sequences and other examples described herein are meant to be non-limiting, and recognition molecules in accordance with the application can include any homologs, variants thereof, or fragments thereof minimally containing domains or subdomains responsible for peptide recognition.

[4] = tested on: FA, LF, WA, and YA peptides; experiment: Binder-on-chip single-molecule assay (PS218 and wild-type atClpS1); format: binding; parameters: unit not given here
Description: A variant of atClpS1 was created with active-site substitutions rationally designed to achieve longer pulse widths which can be favorable in single-molecule sequencing reactions. The designed variant (PS218) contains the following mutations relative to wild-type atClpS1: M51F, E52Q, M73T, T70 W. Binder-on-chip experiments were performed for PS218 with FA, LF, WA, and YA peptides to evaluate recognition by signal pulse detection in single-molecule assays. As shown by the results in Table 7, the substitutions relative to the wild-type protein result in longer pulse widths with each peptide tested.

B1: PS629: UBR-box domain homolog, SEQ ID NO: 189 (protein, listed as Pichia pastoris)
chain: MCPNYKHHGRPCARQFKQGEPIYRCYECGFDETCVMCMHCFNREQHRDHEVSISIASSSNDGICDCGDPQAWNIELHCQSELD
- Binding Pref. [1]: K, R, H

B2: PS627: UBR-box domain homolog, SEQ ID NO: 187 (protein, listed as Zygosaccharomyces mellis)
chain: MPKYHQHSGRYCGRKFKVGEPIYRCHECGFDETCVICIHCFNAKDHETHHVSVSICSEYSTGICDCGDTEAFVNPLHCRAEEV
- Binding Pref. [1]: K, R, H

B3: PS618: UBR-box domain homolog, SEQ ID NO: 178 (protein, listed as Zygosaccharomyces bailii)
chain: MNASHKGAMCSKQCYPTETVFYCFTCTTNPLYEICESCFDEEKHRGHLYTAKVVVRPEGRVCHCGDPFVFKEPRFAFLCKN
- Binding Pref. [1]: K, R, H

B4: PS505: UBR-box domain homolog, SEQ ID NO: 133 (protein, listed as Brachionus plicatilis)
chain: MVCGRVFKSGEPSYFCRECGTDPTCVLCSICFRHSKHRYHKYVMMTSGGGGYCDCGDPEAWKSDPCCELHMP
- Binding Pref. [1]: K, R, H
- binding affinity to N-terminal R with different penultimate amino acids [2]: high binding affinity to R in the presence of a wide range of penultimate amino acids

B5: PS535: UBR-box domain homolog, SEQ ID NO: 163 (protein, listed as Mus musculus)
chain: MLCGRVFKVGEPTYSCRDCAVDPTCVLCMECFLGSIHRDHRYRMTTSGGGGFCDCGDTEAWKEGPYCQKHKL
- Binding Pref. [1]: K, R, H
- binding range for RX dipeptides [2]: extensive binding range for RX dipeptides
- dissociation rates with R dipeptides [2]: faster dissociation rates
- binding affinity to N-terminal R with different penultimate amino acids [2]: high binding affinity to R in the presence of a wide range of penultimate amino acids
- binding to RA/KA/HA peptides (single-point screening) [2]: favorable binding trajectories to RA and KA peptides with notably high response for RA peptide

B6: Escherichia coli leucyl/phenylalanyl-tRNA-protein transferase: amino acid recognition protein, SEQ ID NO: 111 (protein, listed as Escherichia coli)
chain: MRLVQLSRHSIAFPSPEGALREPNGLLALGGDLSPARLLMAYQRGIFPWFSPGDPILWWSPDPRAVLWPESLHISRSMKRFHKRSPYRVTMNYAFGQVIEGCASDREEGTWITRGVVEAYHRLHELGHAHSIEVWREDELVGGMYGVAQGTLFCGESMFSRMENASKTALLVFCEEFIGHGGKLIDCQVLNDHTASLGACEIPRRDYLNYLNQMRLGRLPNNFWVPRCLFSPQELE
- Binding Pref. [1]: K, R

B7: PS623: UBR-box domain homolog, SEQ ID NO: 183 (protein, listed as Kazachstania naganishii)
chain: MSKQFRHKGRNCGRKFRLGEPLYRCQECGYDDTCVLCINCFNPKDHEGHHIYTDICNDFTSGICDCGDEEAWLSPLHCKAEED
- Binding Pref. [1]: K, R, H

B8: PS617: UBR-box domain homolog, SEQ ID NO: 177 (protein, listed as Eremothecium sinecaudum)
chain: MPKEHRGTSCNKHCQPTETVYYCFDCTKNPLYEICEECFDADKHLGHRWTSKVVSRPEGKICHCGDPSGLTDPENGYECKN
- Binding Pref. [1]: K, R, H

B9: PS622: UBR-box domain homolog, SEQ ID NO: 182 (protein, listed as Kluyveromyces dobzhanskii)
chain: MHSRFNHAGRICASKFKVGEPIYRCKECSFDDTCVICVNCFNPKDHVGHHVYTSICSEFNNGICDCGDTEAWNHDMHCKADEN
- Binding Pref. [1]: K, R, H

B10: PS522: UBR-box domain homolog, SEQ ID NO: 150 (protein, listed as Vombatus ursinus)
chain: MLCGKVFKSGETTYSCRDCAIDPTCVLCMNCFQSSVHKNHRYKMHTSTGGGFCDCGDTEAWKTGPFCTIHEP
- Binding Pref. [1]: K, R, H
- binding range for RX dipeptides [2]: extensive binding range for RX dipeptides
- dissociation rates with R dipeptides [2]: faster dissociation rates
- binding affinity to N-terminal R with different penultimate amino acids [2]: high binding affinity to R in the presence of a wide range of penultimate amino acids
- binding to RA/KA/HA peptides (single-point screening) [2]: favorable binding trajectories to RA and KA peptides with notably high response for RA peptide

B11: PS218: designed variant of atClpS1 with active-site substitutions, SEQ ID NO: 98 (protein)
chain: MIAEPICMQGEGDGEDGGTNRGTSVITRVKPKTKRPNLYRVLLLNDDYTPFQFVIHILERFFQKDREAAWRITLHVHQHGVGECGVFTYEVAETKVSQVMDFARQHQHPLQCVMEKK
- Binding Pref. [3]: F, W, Y, L
- Median PW ([4]; FA peptide): 0.78
- mean pulse width ([4]; FA peptide): 1.28
- Median PW ([4]; LF peptide): 0.32
- mean pulse width ([4]; LF peptide): 0.56
- Median PW ([4]; WA peptide): 0.58
- mean pulse width ([4]; WA peptide): 1.00
- Median PW ([4]; YA peptide): 1.06
- mean pulse width ([4]; YA peptide): 1.64

B12: H. sapiens Fyn SH2 domain: SEQ ID NO: 116 (protein, listed as Homo sapiens)
chain: MGAMDSIQAEEWYFGKLGRKDAERQLLSFGNPRGTFLIRESETTKGAYSLSIRDWDDMKGDHVKHYKIRKLDNGGYYITTRAQFETLQQLVQHYSERAAGLSSRLVVPSHK
- Binding Pref. [1]: phospho-Y

B13: PS626: UBR-box domain homolog, SEQ ID NO: 186 (protein, listed as Zygosaccharomyces parabailii)
chain: MYHVYKHSGRNCGRKFKVGEPIYRCHECGYDETCVLCIHCFNPKDHDSHHVYIDICSEFSTGICDCGDTEAFVNPLHCKAEED
- Binding Pref. [1]: K, R, H

B14: PS624: UBR-box domain homolog, SEQ ID NO: 184 (protein, listed as Eremothecium sinecaudum)
chain: MPKNHNHKGRNCGRSFQPGEPLYRCQECAYDDTCVLCIRCFNPLDHVNHHVSTHICSEFNDGICDCGDVEAWNVELNCKAEED
- Binding Pref. [1]: K, R, H

B15: PS628: UBR-box domain homolog, SEQ ID NO: 188 (protein)
chain: MSHRAYHKNSPCGRIFRKGEPIHRCLTCGFDDTCALCSHCFQPEYHEGHKVHIGICQRENGGVCDCGDPEAWTQELFCPYAVD
modifications: Candida albicans
- Binding Pref. [1]: K, R, H

B16: PS620: UBR-box domain homolog, SEQ ID NO: 180 (protein, listed as Saccharomyces cerevisiae)
chain: MGNMHIGTACTRLCFPSETIYYCFTCSTNPLYEICELCFDKEKHVNHSYVAKVVMRPEGRICHCGDPFAFNDPSDAFKCKN
- Binding Pref. [1]: K, R, H

B17: PS538: UBR-box domain homolog, SEQ ID NO: 166 (protein, listed as Saccharomyces cerevisiae)
chain: MGDVHKHTGRNCGRKFKIGEPLYRCHECGCDDTCVLCIHCFNPKDHVNHHVCTDICTEFTSGICDCGDEEAWNSPLHCKAEEQ
- Binding Pref. [1]: K, R, H
- binding to RA/KA/HA peptides (single-point screening) [2]: favorable binding trajectories to RA and KA peptides with notably high response for RA peptide

B18: PS625: UBR-box domain homolog, SEQ ID NO: 185 (protein, listed as Saccharomyces eubayanus)
chain: MGDVHKHTGRNCGRKFKIGEPLYRCHECGCDDTCVLCIHCFNPKDHINHHVCTDICSEFTSGICDCGDEEAWNSSLHCKAEEQ
- Binding Pref. [1]: K, R, H

B19: PS619: UBR-box domain homolog, SEQ ID NO: 179 (protein, listed as Vanderwaltozyma polyspora)
chain: MENLHIGSCCNRQCYPTQTVYYCLTCTINPLYEICELCFDEDKHVGHTYISKSVIRPEGKVCHCGNPNVFKKPEFAFNCKN
- Binding Pref. [1]: K, R, H
